From patent US20170037124A1

Tests used:
Test in all cases: SPR, blank anti-hFc surface, 500 nM peptide, 25C
[1] = target: human ANGPTL8 peptide (hANGPTL8 peptide, SEQ ID NO: 337) (human)
[2] = target: peptide from the N-terminal coiled-coil region of human ANGPTL3 (hANGPTL3 peptide, SEQ ID NO: 338) (human)
[3] = target: peptide from the N-terminal coiled-coil region of human ANGPTL4 (hANGPTL4 peptide, SEQ ID NO: 339) (human)
peptide from the N-terminal coiled-coil region of human ANGPTL4 (hANGPTL4 peptide, SEQ ID NO: 339) (human), sequence (peptide, as listed by the source): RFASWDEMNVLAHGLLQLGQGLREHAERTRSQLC

peptide from the N-terminal coiled-coil region of human ANGPTL3 (hANGPTL3 peptide, SEQ ID NO: 338) (human), sequence (peptide, as listed by the source): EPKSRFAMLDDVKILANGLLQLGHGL
human ANGPTL8 peptide (hANGPTL8 peptide, SEQ ID NO: 337) (human), sequence (peptide, as listed by the source): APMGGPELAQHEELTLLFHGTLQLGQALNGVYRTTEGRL

Question: With “monoclonal mouse anti-human Fc antibody (GE, # BR-1008-39)” as the substance, how does the 500 nM hANGPTL8 peptide Bound (RU) [1] read?
Answer: The 500 nM hANGPTL8 peptide Bound (RU) was 3 RU.

Question: And the 500 nM hANGPTL3 peptide Bound (RU) [2]?
Answer: Its 500 nM hANGPTL3 peptide Bound (RU) is 0 RU.

Question: What about the 500 nM hAngPTL4 peptide Bound (RU) [3] of the same substance?
Answer: Its 500 nM hAngPTL4 peptide Bound (RU) is 0 RU.
